Measurements from US12618845B2, “Methods and compositions for protein sequencing” (Quantum-Si Incorporated, priority 2018, dated 2026).
Where two headings read alike, the source gives them in different places.

B1: PfuTET: Pfu aminopeptidase I (protein)
chain: MVDWELMKKIIESPGVSGYEHLGIRDLVVDILKDVADEVKIDKLGNVIAHFKGSAPKVMVAAHMDKIGLMVNHIDKDGYLRVVPIGGVLPETLIAQKIRFFTEKGERYGVVGVLPPHLRREAKDQGGKIDWDSIIVDVGASSREEAEEMGFRIGTIGEFAPNFTRLSEHRFATPYLDDRICLYAMIEAARQLGEHEADIYIVASVQEEIGLRGARVASFAIDPEVGIAMDVTFAKQPNDKGKIVPELGKGPVMDVGPNINPKLRQFADEVAKKYEIPLQVEPSPRPTGTDANVMQINREGVATAVLSIPIRYMHSQVELADARDVDNTIKLAKALLEELKPMDFTPLE
B2: Rat APN (protein)
chain: KPWNQYRLPKTLIPDSYQVTLRPYLTPNEQGLYIFKGSSTVRFTCNETTNVIIIHSKKLNYTNKGNHRVALRALGDTPAPNIDTTELVERTEYLVVHLQGSLVKGHQYEMDSEFQGELADDLAGFYRSEYMEGGNKKVVATTQMQAADARKSFPCFDEPAMKASFNITLIHPNNLTALSNMLPKDSRTLQEDPSWNVTEFHPTPKMSTYLLAYIVSEFKYVEAVSPNRVQIRIWARPSAIDEGHGDYALQVTGPILNFFAQHYNTAYPLEKSDQIALPDFNAGAMENWGLVTYRESALVFDPQSSSISNKERVVTVIAHELAHQWFGNLVTVDWWNDLWLNEGFASYVEFLGADYAEPTWNLKDLIVLNDVYRVMAVDALASSHPLSSPANEVNTPAQISELFDSITYSKGASVLRMLSSFLTEDLFKKGLSSYLHTFQYSNTIYLDLWEHLQQAVDSQTAIKLPASVSTIMDRWILQMGFPVITVNTSTGEIYQEHFLLDPTSKPTRPSDFNYLWIVPIPYLKNGKEDHYWLETEKNQSAEFQTSSNEWLLLNINVTGYYQVNYDENNWRKIQNQLQTDLSVIPVINRAQIIHDSFNLASAGKLSITLPLSNTLFLASETEYMPWEAALSSLNYFKLMFDRSEVYGPMKRYLKKQVTPLFAYFKIKTNNWLDRPPTLMEQYNEINAISTACSSGLEECRDLVVGLYSQWMNNSDNNPIHPNLRSTVYCNAIAFGGEEEWNFAWEQFRKATLVNEADKLRSALACSNEVWILNRYLSYTLNPDYIRKQDATSTIVSIANNVVGQTLVWDFVRSNWKKLFEDYGGGSFSFANLIQGVTRRFSSEFELQQLEQFKEDNSATGFGSGTRALEQALEKTKANIKWVKENKDVVLKWFTENS
B3: hTET: Pyrococcus horikoshii TET aminopeptidase, SEQ ID NO: 59 (protein, listed as Pyrococcus horikoshii)
chain: MEVRNMVDYELLKKVVEAPGVSGYEFLGIRDVVIEEIKDYVDEVKVDKLGNVIAHKKGEGPKVMIAAHMDQIGLMVTHIEKNGFLRVAPIGGVDPKTLIAQRFKVWIDKGKFIYGVGASVPPHIQKPEDRKKAPDWDQIFIDIGAESKEEAEDMGVKIGTVITWDGRLERLGKHRFVSIAFDDRIAVYTILEVAKQLKDAKADVYFVATVQEEVGLRGARTSAFGIEPDYGFAIDVTIAADIPGTPEHKQVTHLGKGTAIKIMDRSVICHPTIVRWLEELAKKHEIPYQLEILLGGGTDAGAIHLTKAGVPTGALSVPARYIHSNTEVVDERDVDATVELMTKALENIHELKI

Test system: peptide substrates
Type: biochemical
[1] = substrate AAPFQQ (SEQ ID NO: 118), 1 mM Peptide, 1 μM enzyme, 10 mM Mg(OAc)2, 50 mM MOPS pH 8, 60 mM KOAc, RT/0.5 hr
[2] = substrate CCPFQQ (SEQ ID NO: 144), 1 mM Peptide, 1 μM enzyme, 10 mM Mg(OAc)2, 50 mM MOPS pH 8, 60 mM KOAc, RT/0.5 hr
[3] = substrate DDPFQQ (SEQ ID NO: 126), 1 mM Peptide, 1 μM enzyme, 10 mM Mg(OAc)2, 50 mM MOPS pH 8, 60 mM KOAc, RT/0.5 hr
[4] = substrate EEPFQQ (SEQ ID NO: 128), 1 mM Peptide, 1 uM enzyme, 10 mM Mg(OAc)2, 50 mM MOPS pH 8, 60 mM KOAc, RT/0.5 hr
[5] = substrate FFPFQQ (SEQ ID NO: 124), 1 mM Peptide, 1 μM enzyme, 10 mM Mg(OAc)2, 50 mM MOPS pH 8, 60 mM KOAc, RT/0.5 hr
[6] = substrate GGPFQQ (SEQ ID NO: 152), 1 mM Peptide, 1 uM enzyme, 10 mM Mg(OAc)2, 50 mM MOPS pH 8, 60 mM KOAc, RT/0.5 hr
[7] = substrate HHPFQQ (SEQ ID NO: 154), 1 mM Peptide, 1 uM enzyme, 10 mM Mg(OAc)2, 50 mM MOPS pH 8, 60 mM KOAc, RT/0.5 hr
[8] = substrate IIPFQQ (SEQ ID NO: 136), 1 mM Peptide, 1 μM enzyme, 10 mM Mg(OAc)2, 50 mM MOPS pH 8, 60 mM KOAc, RT/0.5 hr
[9] = substrate KKPFQQ (SEQ ID NO: 120), 1 mM Peptide, 1 uM enzyme, 10 mM Mg(OAc)2, 50 mM MOPS pH 8, 60 mM KOAc, RT/0.5 hr
[10] = substrate LLPFQQ (SEQ ID NO: 138), 1 mM Peptide, 1 μM enzyme, 10 mM Mg(OAc)2, 50 mM MOPS pH 8, 60 mM KOAc, RT/0.5 hr
[11] = substrate MMPFQQ (SEQ ID NO: 148), 1 mM Peptide, 1 uM enzyme, 10 mM Mg(OAc)2, 50 mM MOPS pH 8, 60 mM KOAc, RT/0.5 hr
[12] = substrate NNPFQQ (SEQ ID NO: 130), 1 mM Peptide, 1 μM enzyme, 10 mM Mg(OAc)2, 50 mM MOPS pH 8, 60 mM KOAc, RT/0.5 hr
[13] = substrate PPPFQQ (SEQ ID NO: 150), 1 mM Peptide, 1 uM enzyme, 10 mM Mg(OAc)2, 50 mM MOPS pH 8, 60 mM KOAc, RT/0.5 hr
[14] = substrate QQPFQQ (SEQ ID NO: 132), 1 mM Peptide, 1 μM enzyme, 10 mM Mg(OAc)2, 50 mM MOPS pH 8, 60 mM KOAc, RT/0.5 hr
[15] = substrate RRPFQQ (SEQ ID NO: 116), 1 mM Peptide, 1 uM enzyme, 10 mM Mg(OAc)2, 50 mM MOPS pH 8, 60 mM KOAc, RT/0.5 hr
[16] = substrate SSPFQQ (SEQ ID NO: 140), 1 mM Peptide, 1 μM enzyme, 10 mM Mg(OAc)2, 50 mM MOPS pH 8, 60 mM KOAc, RT/0.5 hr
[17] = substrate TTPFQQ (SEQ ID NO: 142), 1 mM Peptide, 1 μM enzyme, 10 mM Mg(OAc)2, 50 mM MOPS pH 8, 60 mM KOAc, RT/0.5 hr
[18] = substrate VVPFQQ (SEQ ID NO: 134), 1 mM Peptide, 1 μM enzyme, 10 mM Mg(OAc)2, 50 mM MOPS pH 8, 60 mM KOAc, RT/0.5 hr
[19] = substrate WWPFQQ (SEQ ID NO: 146), 1 mM Peptide, 1 μM enzyme, 10 mM Mg(OAc)2, 50 mM MOPS pH 8, 60 mM KOAc, RT/0.5 hr
[20] = substrate YYPFQQ (SEQ ID NO: 122), 1 mM Peptide, 1 μM enzyme, 10 mM Mg(OAc)2, 50 mM MOPS pH 8, 60 mM KOAc, RT/0.5 hr

Molecule | HPLC Assay Conv [1] [%] | HPLC Assay Conv [2] [%] | HPLC Assay Conv [3] [%] | HPLC Assay Conv [4] [%] | HPLC Assay Conv [5] [%] | HPLC Assay Conv [6] [%] | HPLC Assay Conv [7] [%] | HPLC Assay Conv [8] [%] | HPLC Assay Conv [9] [%] | HPLC Assay Conv [10] [%] | HPLC Assay Conv [11] [%] | HPLC Assay Conv [12] [%] | HPLC Assay Conv [13] [%] | HPLC Assay Conv [14] [%] | HPLC Assay Conv [15] [%] | HPLC Assay Conv [16] [%] | HPLC Assay Conv [17] [%] | HPLC Assay Conv [18] [%] | HPLC Assay Conv [19] [%] | HPLC Assay Conv [20] [%] | further results
B1 | 100 | 72 | 86 | 93 | 65 | 0 | 19 | 0 | 100 | 99 | 100 | 81 | 0 | 100 | 100 | 90 | 100 | 0 | 37 | 100 | 
B2 |  |  |  |  |  |  |  |  |  |  |  |  |  |  |  |  |  |  |  |  | HPLC Assay Conv (substrate AAPAAP{LYSN3}NH2 (SEQ ID NO: 98), 1 mM peptide, 50 nM enzyme, 2.5 mM ZnCl2, 25 mM Tris pH 8.0, 30° C./1 hr): 100%; HPLC Assay Conv (substrate KKMKKMLys-Triazole-PEG4 Biotin (SEQ ID NO: 89), 1 mM peptide, 150 nM enzyme, 2.5 mM ZnCl2 25 mM Tris pH 8.0, 30° C./1 hr): >90%; HPLC Assay Conv (substrate KKMKKM{LYSN3}NH2 (SEQ ID NO: 71), 1 mM peptide, 50 nM enzyme, 2.5 mM ZnCl2, 25 mM Tris pH 8.0, 30° C./1 hr): 50%; HPLC Assay Conv (substrate KKPKKP{LYSN3}NH2 (SEQ ID NO: 100), 1 mM peptide, 50 nM enzyme, 2.5 mM ZnCl2, 25 mM Tris pH 8.0, 30° C./1 hr): 85%; HPLC Assay Conv (substrate QP5-Atto649N ([…]{LYSN3}NH2) (SEQ ID NO: 106), 37 μM Peptide, 100 nM Enzyme, 2.5 mM ZnCl2, 25 mM Tris pH 8.0, 37° C./0.5 hr): >95%; HPLC Assay Conv (substrate RRPRRP{LYSN3}NH2 (SEQ ID NO: 96), 1 mM peptide, 50 nM enzyme, 2.5 mM ZnCl2, 25 mM Tris pH 8.0, 30° C./1 hr): 55%
B3 | 100 | 32 | 4 | 0 | 100 | 33 | 26 | 100 | 0 | 100 | 0 | 69 | 0 | 63 | 0 | 100 | 100 | 100 | 4 | 99 | HPLC Assay Conv (substrate […]1 (SEQ ID NO: 156), 1 mM Peptide, 1.0 μM enzyme, 10 mM Mg(OAc)2, 50 mM MOPS pH 8, 60 mM KOAc, RT/0.5 hr): 100%; HPLC Assay Conv (substrate […], 200 μM Peptide, 2 μM, 37° C. (rest of the wrapped entry lies below the rows shown)): 55%; HPLC Assay Conv (substrate […]{LYSN3}NH2 (SEQ ID NO: 107), 200 μM Peptide, 2 μM enzyme, 10 mM MgCl2, 50 mM MOPS pH 8.0, 37° C./1 hr): 55%; HPLC Assay Conv (substrate […]{LYSN3}NH2 (SEQ ID NO: 109), 200 μM Peptide, 4 μM enzyme, 10 mM MgCl2, 50 mM MOPS pH 8.0, 37° C./1 hr): 100%
